We go through three molecules from article PMC8074105, “Bacillus subtilis PcrA Helicase Removes Trafficking Barriers” (Cells, 2021).

Substrate in data set [1]: Nc1ncnc2c1ncn2[C@@H]1O[C@H](COP(=O)(O)OP(=O)(O)OP(=O)(O)O)[C@@H](O)[C@H]1O
Nature of the data set: NADH-coupled (pyruvate kinase / lactate dehydrogenase) spectrophotometric ATPase assay, Michaelis-Menten fit. It is filed as biochemical, Bacillus subtilis. Particulars: 15 nM PcrA, ATP 0.06 to 10 mM, ssDNA-dependent assay (circular pGEM3 Zf(+) ssDNA, 10 µM in nt, inferred from context), 10 mM Mg acetate, 80 mM NaCl, pH 7.5, 37 °C.

In data set [2] the target is T1, PcrA (Bacillus subtilis, UniProt O34580 1-739).
T1 sequence: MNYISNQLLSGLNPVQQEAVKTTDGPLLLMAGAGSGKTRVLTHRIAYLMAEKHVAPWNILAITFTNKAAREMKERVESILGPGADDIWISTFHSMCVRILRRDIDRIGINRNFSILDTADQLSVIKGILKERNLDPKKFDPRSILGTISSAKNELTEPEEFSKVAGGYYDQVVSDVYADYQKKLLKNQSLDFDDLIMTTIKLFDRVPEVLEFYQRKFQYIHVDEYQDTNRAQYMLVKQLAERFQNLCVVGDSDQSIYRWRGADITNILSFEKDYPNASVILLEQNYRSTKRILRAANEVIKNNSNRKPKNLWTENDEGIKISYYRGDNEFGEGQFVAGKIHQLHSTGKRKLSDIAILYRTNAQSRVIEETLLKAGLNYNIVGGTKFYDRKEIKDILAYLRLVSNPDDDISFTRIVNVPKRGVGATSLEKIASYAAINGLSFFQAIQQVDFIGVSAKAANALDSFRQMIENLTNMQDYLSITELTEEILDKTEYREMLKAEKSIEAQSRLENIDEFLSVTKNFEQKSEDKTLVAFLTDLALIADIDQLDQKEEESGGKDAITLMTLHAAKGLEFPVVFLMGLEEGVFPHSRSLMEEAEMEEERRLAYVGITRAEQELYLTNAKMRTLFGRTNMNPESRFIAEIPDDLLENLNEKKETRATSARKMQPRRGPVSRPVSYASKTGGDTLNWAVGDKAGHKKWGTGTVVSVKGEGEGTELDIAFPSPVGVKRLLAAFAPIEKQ
Nature of the data set: EMSA; 2.5 mM ATPgS, 3 mM Mg2+; apparent; unstable complexes; 20 mM Tris-HCl pH 7.5, 50 mM NaCl, 3 mM MgCl2, 4 mM DTT, 0.05 mg/mL BSA, 5% glycerol, 2.5 mM ATPgS, 0.1 nM 32P-labelled nucleic acid, 15 min, 37 C. Particulars: protein: recombinant; tags: His6 removed (TAGZyme); label: 32P. A general note: In EMSA bound probe runs differently from free probe, usually more slowly.

Data set [3] has as its target T1, PcrA. Briefly: EMSA; 2.5 mM ATPgS, 3 mM Mg2+; four complexes; 20 mM Tris-HCl pH 7.5, 50 mM NaCl, 3 mM MgCl2, 4 mM DTT, 0.05 mg/mL BSA, 5% glycerol, 2.5 mM ATPgS, 0.1 nM 32P-labelled nucleic acid, 15 min, 37 C. Particulars: protein: recombinant; tags: His6 removed (TAGZyme); label: 32P.

B1: PcrA (Bacillus subtilis subsp. subtilis str. 168) (protein)
chain: T1 sequence
notes: full-length, His6-tagged from plasmid pCB1229 (pQE1) in E. coli M15 (pREP4), His-tag removed with TAGZyme; amounts as monomers
The Km is the concentration of substrate that gives half-maximal velocity. B1: the Km in data set [1] turned out to be 1500 ± 300 µM. For the molecule GCUCUGAUGCCGCAUAGUUAAGCCAGCCCCGACACCCG (ssRNA) [38-nt RNA (SM44R)], in data set [2], the Kd is about 35 nM. GCTCTGATGCCGCATAGTTAAGCCAGCCCCGACACCCG (ssDNA) [38-nt ssDNA (SM44D)]: the binding result in data set [3] is on record as “binds”.
